Source: US20240360228A1 (BIOLEGEND, published 2024)
Where a chain is given by its changes, count along the chain named.

B1: AB14 (antibody, V domains shown)
VH: EVQLVESGGGLVQPKGSLKLSCAASGFTFNTYAMNWVRQAPGKGLEWVARIRSKSNNYATYYVDSVKDRFTISRDDSQSMLYLQINNLKTEDTAMYYCVRGRELGPYSAMDYWGQGTSVTVSS
VL: DIVMTQAAPSVPVTPGESVSISCRSSKSLLHSNGNTYLYWFLQRPGQSPQLLIYRMSNLASGVPDRFSGSGSGTAFTLRISRVEAEDVGLYYCMQHLEYPFTFGGGTKLEIK
notes: Hybridoma monoclonal; Same VH/VL entries as AB15; also called antibody 14; clone 14
B2: AB15 (antibody, V domains shown)
VH: B1 VH
VL: B1 VL
notes: Hybridoma monoclonal; Same VH/VL entries as AB14; also called antibody 15; clone 15
B3: AB12 (antibody, V domains shown)
VH: B1 VH with T28A, V48I, I51L, N57F, V63A, I85M, M95V, Y107S, S108Y
VL: B1 VL with L90V, F101Y
notes: Hybridoma monoclonal; also called antibody 12; clone 12
B4: AB1 (antibody, V domains shown)
VH: QVQLKESGPGLVKPSETLSLTCTVSGFSLTSYHISWVRQPPGKGLEWMGVIWGDGSKTYNSALKSRLSISRDTSKSQVFLKMRSLKTEDTATYYCARGGDSGFAYWGQGTLVTVSS
VL: DIQMTQSPASLSASLEEIVTITCQASQDIGNWLSWYQQKPGKSPQLLIYGTTNLADGVPSRFSGSRSGTQYSLKISRLQVEDIGIYYCLQAYSVPLTFGSGTKLEIK
notes: Hybridoma monoclonal (mouse or rat); Same VH/VL entries as AB2; also called antibody 1; clone 1
B5: AB2 (antibody, V domains shown)
VH: B4 VH
VL: B4 VL
notes: Hybridoma monoclonal; Same VH/VL entries as AB1; also called antibody 2; clone 2
B6: AB4 (antibody, V domains shown)
VH: B4 VH with S31G, I34V, S56R, K57T, R83S
VL: B4 VL with T51A, N53S, Y71F, S93I, I106S
notes: Hybridoma monoclonal; also called antibody 4; clone 4
B7: AB3 (antibody, V domains shown)
VH: B4 VH with S56K, K57T, R83N
VL: B4 VL
notes: Hybridoma monoclonal; also called antibody 3; clone 3

Columns and labels:
human CCR8 [1] = biological target: T1, human CCR8 (human, UniProt P51685 1-355); experiment: flow blocking, PBMC CCR8+CD4+; competitor PE-AB12
T1 construct: Native CCR8 on human PBMC (CCR8+ CD3+ or CCR8+ CD4+ lymphocytes); also called chemokine (C-C motif) receptor 8
Description: (§1) For blocking studies, 100 μL of the cell suspension were incubated with 10 μg purified isotype control, AB1, AB2, AB3, AB4, AB5, AB8, AB9, AB10, AB11, AB12, AB13, AB14, AB15, and Commercial ABI antibodies, or isotype control, as blocking agents.
(§2) After incubation with the blocking agent, the cells were incubated with 0.25 μg of the indicated PE-conjugated antibody plus anti-human CD4 APC or anti-human CD3 for another 15 minutes in the dark and then washed 2 times with Cell Staining Buffer, and acquired in a FACSCanto II flow cytometer (BD Biosciences); the data was analyzed using FCS Express (De Novo Software); MFI correspond to the CCR8+ CD4+ lymphocytes or CCR8+ CD3+ lymphocytes.
(§3) Percentage original MFI was calculated by dividing the MFI of samples blocked with AB1, AB2, AB3, AB4, AB5, AB6, AB7, AB8, AB9, AB10, AB11, AB12, AB13, AB14, AB15, and Commercial ABI antibodies, by the MFI of samples blocked with the corresponding isotype control. This value was subtracted from 100 to get a blocking percentage. The formula is shown below: […]

human CCR8 [2] = biological target: T1, human CCR8; experiment: flow blocking, PBMC CCR8+CD4+; competitor PE-AB5
Description: as §1, §2, §3

human CCR8 [3] = biological target: T1, human CCR8; experiment: flow blocking, PBMC CCR8+CD4+; competitor PE-AB11
Description: as §1, §2, §3

human CCR8 [4] = biological target: T1, human CCR8; experiment: flow blocking, PBMC CCR8+CD4+; competitor PE-AB3
Description: as §1, §2, §3

human CCR8 [5] = biological target: T1, human CCR8; experiment: flow blocking, PBMC CCR8+CD4+; competitor PE-AB1
Description: as §1, §2, §3

human CCR8 [6] = biological target: T1, human CCR8; experiment: flow blocking, PBMC CCR8+CD4+; competitor PE-AB10
Description: as §1, §2, §3

human CCR8 [7] = biological target: T1, human CCR8; experiment: flow blocking, PBMC CCR8+CD4+; competitor PE-AB6
Description: as §1, §2

human CCR8 [8] = biological target: T1, human CCR8; experiment: flow blocking, PBMC CCR8+CD4+; competitor PE-AB2
Description: as §1, §2, §3

human CCR8 [9] = biological target: T1, human CCR8; experiment: flow blocking, PBMC CCR8+CD4+; competitor PE-433H
Description: as §1, §2

human CCR8 [10] = biological target: T1, human CCR8; experiment: flow blocking, PBMC CCR8+CD4+; competitor PE-AB14
Description: as §1, §2

human CCR8 [11] = biological target: T1, human CCR8; experiment: flow blocking, PBMC CCR8+CD4+; competitor PE-AB4
Description: as §1, §2, §3

human CCR8 [12] = biological target: T1, human CCR8; experiment: flow blocking, PBMC CCR8+CD4+; competitor PE-AB15
Description: as §1, §2, §3

human CCR8 [13] = biological target: T1, human CCR8; experiment: flow blocking, PBMC CCR8+CD4+; competitor PE-AB13
Description: as §1, §2

T1 sequence (P51685 whole entry): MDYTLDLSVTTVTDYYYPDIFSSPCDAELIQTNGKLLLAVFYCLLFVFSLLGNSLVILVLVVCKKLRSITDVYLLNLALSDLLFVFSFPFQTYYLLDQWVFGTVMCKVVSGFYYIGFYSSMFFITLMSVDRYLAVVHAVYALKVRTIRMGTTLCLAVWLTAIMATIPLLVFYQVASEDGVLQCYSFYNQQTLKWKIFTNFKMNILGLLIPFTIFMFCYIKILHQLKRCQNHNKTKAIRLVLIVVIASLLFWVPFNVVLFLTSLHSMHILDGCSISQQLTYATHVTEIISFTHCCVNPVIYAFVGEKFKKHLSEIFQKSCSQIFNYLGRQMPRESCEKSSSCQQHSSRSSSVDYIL

Row | Binder | % Blocking (human CCR8 [1]) [%] | % Positive cells (human CCR8 [1]) [%] | % Blocking (human CCR8 [2]) [%] | % Positive cells (human CCR8 [2]) [%] | % Blocking (human CCR8 [3]) [%] | % Positive cells (human CCR8 [3]) [%] | % Blocking (human CCR8 [4]) [%] | % Positive cells (human CCR8 [4]) [%] | % Blocking (human CCR8 [5]) [%] | % Positive cells (human CCR8 [5]) [%] | % Blocking (human CCR8 [6]) [%] | % Positive cells (human CCR8 [6]) [%] | % Blocking (human CCR8 [7]) [%] | % Positive cells (human CCR8 [7]) [%] | % Blocking (human CCR8 [8]) [%] | % Positive cells (human CCR8 [8]) [%] | % Blocking (human CCR8 [9]) [%] | % Positive cells (human CCR8 [9]) [%] | % Blocking (human CCR8 [10]) [%] | % Positive cells (human CCR8 [10]) [%] | also measured
1 | B1 | 99.4 | 0.01 | 6.93 | 1.88 | 98.5 | 0.03 | -27.5 | 2.18 | -25.2 | 1.94 | 96 | 0.06 | -3.47 | 2.09 | -10.4 | 1.81 | 22.7 | 1.36 | 98.5 | 0.02 | % Blocking (human CCR8 [11]): -10.1%; % Positive cells (human CCR8 [11]): 1.96%; % Blocking (human CCR8 [12]): 97.7%; % Positive cells (human CCR8 [12]): 0.03%; % Blocking (human CCR8 [13]): 96%; % Positive cells (human CCR8 [13]): 0.08%
2 | B2 | 99.4 | 0.01 | -17.8 | 2.38 | 85.2 | 0.29 | -33.3 | 2.28 | -38.7 | 2.15 | 93.2 | 0.1 | -23.8 | 2.5 | -28.1 | 2.1 | 21.6 | 1.38 | 99.2 | 0.01 | % Blocking (human CCR8 [11]): -1.69%; % Positive cells (human CCR8 [11]): 1.81%; % Blocking (human CCR8 [12]): 93.8%; % Positive cells (human CCR8 [12]): 0.08%; % Blocking (human CCR8 [13]): 91.9%; % Positive cells (human CCR8 [13]): 0.16%
3 | B3 | 99.4 | 0.01 | -2.48 | 2.07 | 99 | 0.02 | -34.5 | 2.3 | -29.7 | 2.01 | 87.8 | 0.18 | -15.3 | 2.33 | -32.9 | 2.18 | 60.2 | 0.7 | 100 | 0 | % Blocking (human CCR8 [11]): -33.1%; % Positive cells (human CCR8 [11]): 2.37%; % Blocking (human CCR8 [12]): 94.6%; % Positive cells (human CCR8 [12]): 0.07%; % Blocking (human CCR8 [13]): 98.5%; % Positive cells (human CCR8 [13]): 0.03%
4 | B4 | -2.78 | 1.85 | 89.6 | 0.21 | -5.61 | 2.07 | 97.1 | 0.05 | 98.7 | 0.02 | 3.38 | 1.43 | 86.6 | 0.27 | 98.2 | 0.03 | 14.8 | 1.5 | 1.54 | 1.28 | % Blocking (human CCR8 [11]): 96.1%; % Positive cells (human CCR8 [11]): 0.07%; % Blocking (human CCR8 [12]): -30.2%; % Positive cells (human CCR8 [12]): 1.68%; % Blocking (human CCR8 [13]): 10.1%; % Positive cells (human CCR8 [13]): 1.78%
5 | B5 | -8.89 | 1.96 | 90.1 | 0.2 | -3.57 | 2.03 | 98.2 | 0.03 | 93.5 | 0.1 | 2.7 | 1.44 | 93.6 | 0.13 | 98.8 | 0.02 | 2.84 | 1.71 | -15.4 | 1.5 | % Blocking (human CCR8 [11]): 96.6%; % Positive cells (human CCR8 [11]): 0.06%; % Blocking (human CCR8 [12]): -18.6%; % Positive cells (human CCR8 [12]): 1.53%; % Blocking (human CCR8 [13]): -6.06%; % Positive cells (human CCR8 [13]): 2.1%
6 | B6 | 1.11 | 1.78 | 87.1 | 0.26 | 4.59 | 1.87 | 98.2 | 0.03 | 100 | 0 | 0.68 | 1.47 | 87.1 | 0.26 | 98.8 | 0.02 | 1.14 | 1.74 | -15.4 | 1.5 | % Blocking (human CCR8 [11]): 94.9%; % Positive cells (human CCR8 [11]): 0.09%; % Blocking (human CCR8 [12]): -33.3%; % Positive cells (human CCR8 [12]): 1.72%; % Blocking (human CCR8 [13]): 21.7%; % Positive cells (human CCR8 [13]): 1.55%
7 | B7 | 1.67 | 1.77 | 85.2 | 0.3 | 4.59 | 1.87 | 100 | 0 | 97.4 | 0.04 | -9.46 | 1.62 | 84.7 | 0.31 | 98.8 | 0.02 | 7.39 | 1.63 | -12.3 | 1.46 | % Blocking (human CCR8 [11]): 93.3%; % Positive cells (human CCR8 [11]): 0.12%; % Blocking (human CCR8 [12]): -7.75%; % Positive cells (human CCR8 [12]): 1.39%; % Blocking (human CCR8 [13]): 21.2%; % Positive cells (human CCR8 [13]): 1.56%
